{"source": "patent US20030229207A1", "about": "(published 2003)", "key": {"[1]": {"target": "rat CD5 antigen present on rat T cells (rat) (UniProt P51882)", "sequence (P51882 24-491)": "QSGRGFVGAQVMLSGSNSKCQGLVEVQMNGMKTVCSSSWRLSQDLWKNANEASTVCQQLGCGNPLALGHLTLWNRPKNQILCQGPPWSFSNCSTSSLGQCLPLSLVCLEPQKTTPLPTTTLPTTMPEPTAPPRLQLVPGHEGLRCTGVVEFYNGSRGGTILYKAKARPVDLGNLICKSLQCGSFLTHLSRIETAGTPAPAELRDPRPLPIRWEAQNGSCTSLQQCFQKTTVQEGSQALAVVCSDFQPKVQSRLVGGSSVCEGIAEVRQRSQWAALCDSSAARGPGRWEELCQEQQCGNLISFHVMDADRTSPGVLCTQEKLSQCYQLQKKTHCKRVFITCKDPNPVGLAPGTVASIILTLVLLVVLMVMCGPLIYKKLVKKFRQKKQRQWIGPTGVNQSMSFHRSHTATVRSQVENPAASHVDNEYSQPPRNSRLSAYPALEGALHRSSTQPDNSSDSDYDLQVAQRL", "assay": "flow cytometry, rat blood cells 3 h after 0.5 mg/kg i.v."}, "[2]": {"target": "rat CD5 antigen present on rat T cells (rat) (UniProt P51882)", "assay": "flow cytometry, rat spleen cells 3 h after 0.5 mg/kg i.v."}, "[3]": {"target": "rat CD5 antigen present on rat T cells (rat) (UniProt P51882)", "assay": "flow cytometry, rat lymph node cells 3 h after 0.5 mg/kg i.v."}, "[4]": {"target": "T1, human CD5 cell differentiation marker (human, UniProt P06127 25-495)", "T1 construct": "whole, on cells; Cell-surface CD5; also called CD5 antigen; gp67", "T1 sequence (looked up)": "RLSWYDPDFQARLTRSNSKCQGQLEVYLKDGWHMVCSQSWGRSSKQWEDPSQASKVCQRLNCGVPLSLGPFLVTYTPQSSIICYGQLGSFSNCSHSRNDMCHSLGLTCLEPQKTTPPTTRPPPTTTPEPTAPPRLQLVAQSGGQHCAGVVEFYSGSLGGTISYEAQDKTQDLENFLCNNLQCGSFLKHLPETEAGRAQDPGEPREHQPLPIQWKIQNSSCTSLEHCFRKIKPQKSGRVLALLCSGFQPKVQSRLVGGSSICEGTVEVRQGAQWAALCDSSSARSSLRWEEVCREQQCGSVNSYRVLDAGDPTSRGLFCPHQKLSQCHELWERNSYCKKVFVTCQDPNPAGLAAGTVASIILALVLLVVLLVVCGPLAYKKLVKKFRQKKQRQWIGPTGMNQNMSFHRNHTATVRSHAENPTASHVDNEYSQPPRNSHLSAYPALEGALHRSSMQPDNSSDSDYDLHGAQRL", "assay": "competition with 0.1 nM ^125I-cH65 IgG on Molt-4M cells, fitted with MacLigand", "protocol": "Competitive binding was performed as follows: 100 μl of Molt-4M cells were washed two times in ice-cold DHB binding buffer (Dubellco's modified Eagle's medium (Gibco, 320-1965PJ), 1.0% BSA and 10 mM Hepes at pH 7.2.-7.4). Cells were resuspended in the same buffer, plated into 96 v-bottomed wells (Costar) at 3×10⁵ cells per well and pelleted at 4° C. by centrifugation for 5 min at 1,000 rpm using a Beckman JS 4.2 rotor; 50 μl of 2×-concentrated 0.1 nM ¹²⁵I-cH65 IgG in DHB was then added to each well and competed with 50 μl of 2×-concentrated cH65 IgG or humanized antibody in DHB at final antibody concentrations from 100 nM to 0.0017 nM. Humanized antibody was obtained from culture supernatants of Sp2/0 clone C1718 which expresses he3 IgG. The concentration of the antibody in the supernatants was established by ELISA using a chimeric antibody as a standard. The concentration of the antibody in the purified preparation was determined by […] to proceed at 4° C. for 5 hrs and was terminated by washing cells three times with 200 Al of DHB binding buffer by centrifugation for 5 min at 1,000 rpm. All buffers and operations were at 4° C. Radioactivity was determined by solubilizing cells in 100 μl of 1.0 M NaOH and counting in a Cobra II auto gamma counter (Packard). Data from binding experiments were analyzed by the weighted nonlinear least squares curve fitting program, MacLigand, a Macintosh version of the computer program “Ligand” from Munson, Analyt. Biochem., 107:220 (1980). Objective statistical criteria (F, test, extra sum squares principle) were used to evaluate goodness of fit and for discriminating between models. Nonspecific binding was treated as a parameter subject to error and was fitted simultaneously with other parameters."}, "[5]": {"target": "T1, human CD5 cell differentiation marker", "assay": "FACS-based competitive assay, experiment 1; reference mouse H65 = 100%"}, "[6]": {"target": "T1, human CD5 cell differentiation marker", "assay": "FACS-based competitive assay, experiment 2; reference mouse H65 = 100%"}, "[7]": {"target": "T1, human CD5 cell differentiation marker", "assay": "FACS-based competitive assay, experiment 3; reference mouse H65 = 100%"}, "[8]": {"target": "T1, human CD5 cell differentiation marker", "assay": "FACS-based competitive assay, mean of 3 experiments ± SD; reference mouse H65 = 100%"}}}
{"molecule": "OX19 MoAb (antibody)", "values": [{"measurement": "% of CD4 cells positive for surface-bound mouse IgG1 (CD4/mIgG1)", "setting": "[1]", "value": 96.2, "unit": "%"}, {"measurement": "% of CD8 cells positive for surface-bound mouse IgG1 (CD8/mIgG1)", "setting": "[1]", "value": 70.2, "unit": "%"}, {"measurement": "% of CD4 cells positive for surface-bound mouse IgG1 (CD4/mIgG1)", "setting": "[2]", "value": 84.8, "unit": "%"}, {"measurement": "% of CD8 cells positive for surface-bound mouse IgG1 (CD8/mIgG1)", "setting": "[2]", "value": 73.6, "unit": "%"}, {"measurement": "% of CD4 cells positive for surface-bound mouse IgG1 (CD4/mIgG1)", "setting": "[3]", "value": 96.2, "unit": "%"}, {"measurement": "% of CD8 cells positive for surface-bound mouse IgG1 (CD8/mIgG1)", "setting": "[3]", "value": 96.8, "unit": "%"}]}
{"molecule": "he3 Fab (Fab, V domains shown, Fab (he3 kappa and Fd) expressed in E. coli E104 from pING4628; also called Moderate-Risk Fab) VH: EIQLVQSGGGLVKPGGSVRISCAASGYTFTNYGMNWVRQAPGKGLEWMGWINTHTGEPTYADSFKGRFTFSLDDSKNTAYLQINSLRAEDTAVYFCTRRGYDWYFDVWGQGTTVTVSS VL: DIQMTQSPSSLSASVGDRVTITCRASQDINSYLSWFQQKPGKAPKTLIYRANRLESGVPSRFSGSGSGTDYTLTISSLQYEDFGIYYCQQYDESPWTFGGGTKLEIK", "values": [{"measurement": "Kd", "setting": "[4]", "value": 2.2, "unit": "nM"}]}
{"molecule": "chimeric H65 IgG (antibody, V domains shown, Light and heavy chain each consist of unmodified mouse V/J-segments fused to a human C-segment (human kappa / human gamma by the ELISA used); also called purified cH65 IgG) VH: QIQLVQSGPELKKPGETVKISCKASGYTFTNYGMNWVKQAPGKGLRWMGWINTHTGEPTYADDFKGRFAFSLETSASTAYLQINNLKNEDTATYFCTRRGYDWYFDVWGAGTTVTVSS VL: DIKMTQSPSSMYASLGERVTITCKASQDINSYLSWFQQKPGKSPKTLIYRANRLVDGVPSRFSGSGSGQDYSLTISSLDYEDMGIYYCQQYDESPWTFGGGTKLEIK", "values": [{"measurement": "cH65 Affinity Relative to H65 (100%)", "setting": "[5]", "value": 113, "unit": "%"}, {"measurement": "cH65 Affinity Relative to H65 (100%)", "setting": "[6]", "value": 106, "unit": "%"}, {"measurement": "cH65 Affinity Relative to H65 (100%)", "setting": "[7]", "value": 96.3, "unit": "%"}, {"measurement": "Kd", "setting": "[4]", "value": 2.3, "unit": "nM"}, {"measurement": "cH65 Affinity Relative to H65 (100%)", "setting": "[8]", "value": 105, "unit": "%"}]}
{"molecule": "low-risk he1 Fab (Fab, V domains shown, also called hel Fab; Low-Risk Fab) VH: QIQLVQSGPGLKKPGGSVRISCAASGYTFTNYGMNWVKQAPGKGLRWMGWINTHTGEPTYADDFKGRFTFSLDTSKSTAYLQINSLRAEDTATYFCTRRGYDWYFDVWGQGTTVTVSS VL: DIQMTQSPSSMSASLGDRVTITCRASQDINSYLSWFQQKPGKSPKTLIYRANRLVDGVPSRFSGSGSGTDYTLTISSLQYEDFGIYYCQQYDESPWTFGGGTKLEIK", "values": [{"measurement": "Kd", "setting": "[4]", "value": 14.3, "unit": "nM"}]}
{"molecule": "low risk humanized H65 (he1) IgG (antibody, V domains shown, Whole IgG with human constant regions (detected with anti-human kappa and anti-human gamma), expressed transiently in CHO-K1; also called he1 H65 antibody; hH65) VH: QIQLVQSGPGLKKPGGSVRISCAASGYTFTNYGMNWVKQAPGKGLRWMGWINTHTGEPTYADDFKGRFTFSLDTSKSTAYLQINSLRAEDTATYFCTRRGYDWYFDVWGQGTTVTVSS VL: DIQMTQSPSSMSASLGDRVTITCRASQDINSYLSWFQQKPGKSPKTLIYRANRLVDGVPSRFSGSGSGTDYTLTISSLQYEDFGIYYCQQYDESPWTFGGGTKLEIK", "values": [{"measurement": "Kd", "setting": "[4]", "value": 2.1, "unit": "nM"}]}
{"molecule": "chimeric H65 Fab (Fab, V domains shown, Fab of the chimeric H65 antibody; also called Chimeric Fab) VH: QIQLVQSGPELKKPGETVKISCKASGYTFTNYGMNWVKQAPGKGLRWMGWINTHTGEPTYADDFKGRFAFSLETSASTAYLQINNLKNEDTATYFCTRRGYDWYFDVWGAGTTVTVSS VL: DIKMTQSPSSMYASLGERVTITCKASQDINSYLSWFQQKPGKSPKTLIYRANRLVDGVPSRFSGSGSGQDYSLTISSLDYEDMGIYYCQQYDESPWTFGGGTKLEIK", "values": [{"measurement": "Kd", "setting": "[4]", "value": 18.4, "unit": "nM"}]}
